PMC6637868

Target: 6His-CspA (Xanthomonas oryzae pv. oryzae PXO99A, UniProt A0ACG7R7F9 8-71)
Assay: EMSA
Details: protein: recombinant; tags: N-terminal His6 (pET-30a-c(+)); label: 3' biotin

Binder	binding result
PXO_RS01060 promoter probe (dsDNA) DNA 1: ATGATGTCGCCCAATCCCTGACCAGATCGATGCGCATGCA DNA 2: TGCATGCGCATCGATCTGGTCAGGGATTGGGCGACATCAT	binds
PXO_RS11830 promoter probe (dsDNA) DNA 1: CTGGCGGACGCCAATAGCGGTTGAATGGGCAAGAGGATCT DNA 2: AGATCCTCTTGCCCATTCAACCGCTATTGGCGTCCGCCAG	binds
